Target: T1, PilO-C (H. pylori)
T1 chain: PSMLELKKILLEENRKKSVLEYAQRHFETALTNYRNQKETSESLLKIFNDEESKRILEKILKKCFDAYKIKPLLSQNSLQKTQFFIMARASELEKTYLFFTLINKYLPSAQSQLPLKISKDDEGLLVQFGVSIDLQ
Experiment: SPR

B1: PilN-C (domain or fragment)
chain: HNAIKSTQDNASSLTIQERLYRHEISRLQVKTDETLKLIKEAKKRLNYNDDIRDVLQGLLNIVPDSITINSIEIDQQSVVVSGKTPSKEAFYFLFQNKLNPMFDYSRAEFFPLSDGWFNFVSTNFSNSLLIKNPESIK
Kd: 3.1 ± 1 µM
